Results reported in PMC8918821.

What was measured:
[1] = target: cardiac sodium channel NaV1.5 α subunit of human origin (adult isoform) (human) (UniProt Q14524)
[2] = target: cardiac sodium channel NaV1.5 α subunit of human origin (adult isoform) (human) (UniProt Q14524); remark: listed apart in the source
[3] = target: cardiac sodium channel NaV1.5 α subunit of human origin (adult isoform) (human) (UniProt Q14524); remark: listed apart in the source

Sequence of UniProt Q14524 (Q14524 whole entry, canonical isoform): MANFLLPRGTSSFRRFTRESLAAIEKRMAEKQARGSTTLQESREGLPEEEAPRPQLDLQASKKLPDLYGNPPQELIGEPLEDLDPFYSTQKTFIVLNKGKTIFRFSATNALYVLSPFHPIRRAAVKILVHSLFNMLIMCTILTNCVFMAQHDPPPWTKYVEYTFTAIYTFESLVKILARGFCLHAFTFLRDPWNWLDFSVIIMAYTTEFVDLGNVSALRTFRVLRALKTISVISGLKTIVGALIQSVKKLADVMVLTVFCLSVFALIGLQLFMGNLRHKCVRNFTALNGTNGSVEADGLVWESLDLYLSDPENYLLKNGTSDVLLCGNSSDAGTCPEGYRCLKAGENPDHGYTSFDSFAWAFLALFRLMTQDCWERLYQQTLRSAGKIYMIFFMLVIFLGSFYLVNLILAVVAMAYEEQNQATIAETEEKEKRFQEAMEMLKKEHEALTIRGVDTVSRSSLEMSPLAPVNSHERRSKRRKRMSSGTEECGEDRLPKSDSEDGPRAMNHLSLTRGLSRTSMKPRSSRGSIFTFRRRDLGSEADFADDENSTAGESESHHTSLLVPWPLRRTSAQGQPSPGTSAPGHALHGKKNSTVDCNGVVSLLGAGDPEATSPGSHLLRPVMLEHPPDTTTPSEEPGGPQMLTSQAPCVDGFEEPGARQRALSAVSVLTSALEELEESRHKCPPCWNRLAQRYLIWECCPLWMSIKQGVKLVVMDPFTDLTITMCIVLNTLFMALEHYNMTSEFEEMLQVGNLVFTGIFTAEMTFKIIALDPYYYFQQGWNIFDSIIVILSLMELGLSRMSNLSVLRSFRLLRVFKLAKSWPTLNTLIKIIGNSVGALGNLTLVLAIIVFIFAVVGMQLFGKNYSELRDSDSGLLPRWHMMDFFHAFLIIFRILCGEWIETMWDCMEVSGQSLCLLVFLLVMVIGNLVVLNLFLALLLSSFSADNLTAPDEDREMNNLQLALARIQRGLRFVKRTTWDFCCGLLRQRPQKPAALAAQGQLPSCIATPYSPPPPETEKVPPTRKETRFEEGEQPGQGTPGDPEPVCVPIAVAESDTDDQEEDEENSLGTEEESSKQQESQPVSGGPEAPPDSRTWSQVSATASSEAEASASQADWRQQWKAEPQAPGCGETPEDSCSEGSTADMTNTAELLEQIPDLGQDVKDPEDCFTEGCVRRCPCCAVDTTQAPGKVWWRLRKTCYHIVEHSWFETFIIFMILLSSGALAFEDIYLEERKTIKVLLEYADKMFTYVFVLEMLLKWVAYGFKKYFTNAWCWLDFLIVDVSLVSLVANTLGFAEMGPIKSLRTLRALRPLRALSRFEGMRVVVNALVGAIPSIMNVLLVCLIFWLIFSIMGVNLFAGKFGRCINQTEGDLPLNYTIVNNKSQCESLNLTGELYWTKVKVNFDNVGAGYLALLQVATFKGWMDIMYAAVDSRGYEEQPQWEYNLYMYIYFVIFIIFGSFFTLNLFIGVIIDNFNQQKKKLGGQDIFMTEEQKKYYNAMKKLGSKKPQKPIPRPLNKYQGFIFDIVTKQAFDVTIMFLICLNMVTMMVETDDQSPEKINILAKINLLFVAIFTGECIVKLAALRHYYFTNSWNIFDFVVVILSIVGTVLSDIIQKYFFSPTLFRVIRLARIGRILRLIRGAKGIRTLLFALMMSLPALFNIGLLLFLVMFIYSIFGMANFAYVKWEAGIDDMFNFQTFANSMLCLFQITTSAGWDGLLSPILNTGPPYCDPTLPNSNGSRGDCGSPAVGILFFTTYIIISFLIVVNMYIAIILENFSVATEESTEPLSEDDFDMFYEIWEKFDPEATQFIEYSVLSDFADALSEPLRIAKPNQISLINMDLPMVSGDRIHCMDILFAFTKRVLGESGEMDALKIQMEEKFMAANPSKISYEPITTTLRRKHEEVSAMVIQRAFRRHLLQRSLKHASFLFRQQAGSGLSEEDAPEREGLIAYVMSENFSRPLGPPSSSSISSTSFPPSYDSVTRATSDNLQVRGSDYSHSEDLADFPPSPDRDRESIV

“AahII toxin from Androctonus australis Hector (from UniProt P01484 20-85) (natural protein)” was tested. Which whole-cell patch clamp on HEK293 cells expressing NaV1.5: factor by which inactivation is slowed against control, [AahII] 75, 150 and 300 nM [1] did it give?
Its whole-cell patch clamp on HEK293 cells expressing NaV1.5: factor by which inactivation is slowed against control, [AahII] 75, 150 and 300 nM is 35 fold.

What about the whole-cell patch clamp: inactivation time constant (tau) of NaV1.5 after washout of AahII (75 nM) with control solution [1] of the same substance?
The whole-cell patch clamp: inactivation time constant (tau) of NaV1.5 after washout of AahII (75 nM) with control solution was 5.2 ms.

And the whole-cell patch clamp: tau of NaV1.5 after AahII 75 nM for 7 min followed by 75 nM AahII + 75 nM Nb10 (1:1) up to 14 min [2]?
Its whole-cell patch clamp: tau of NaV1.5 after AahII 75 nM for 7 min followed by 75 nM AahII + 75 nM Nb10 (1:1) up to 14 min is 4.7 ms.

What about the whole-cell patch clamp: tau of NaV1.5 after AahII 75 nM for 7 min followed by 75 nM Nb10 alone until 14 min [3] of the same substance?
The whole-cell patch clamp: tau of NaV1.5 after AahII 75 nM for 7 min followed by 75 nM Nb10 alone until 14 min was 4.6.

And the whole-cell patch clamp: tau of NaV1.5 with AahII 75 nM perfused for 7 min, before Nb10 alone [3]?
The whole-cell patch clamp: tau of NaV1.5 with AahII 75 nM perfused for 7 min, before Nb10 alone was 9.6 ms.
